Assay [1] deals with F protein on intact RSV particles (Example 10, strain or isolate not stated) (RSV, strain not stated). The assay can be described thus: competition ELISA; RSV particles pre-incubated with control mAb at 20 µg/mL (the reference); competitor (coating mAb): AR201. For orientation: ELISA stands for enzyme-linked immunosorbent assay.
The target in assay [2] is F protein of RSV reference strain RSV-B (ATCC VR 1580) (RSV-B (ATCC VR 1580)) (UniProt P13843). Kind of assay: cell-based or functional assay.
Chain of F protein of RSV reference strain RSV-B (ATCC VR 1580) (RSV-B (ATCC VR 1580)) (P13843 26-574): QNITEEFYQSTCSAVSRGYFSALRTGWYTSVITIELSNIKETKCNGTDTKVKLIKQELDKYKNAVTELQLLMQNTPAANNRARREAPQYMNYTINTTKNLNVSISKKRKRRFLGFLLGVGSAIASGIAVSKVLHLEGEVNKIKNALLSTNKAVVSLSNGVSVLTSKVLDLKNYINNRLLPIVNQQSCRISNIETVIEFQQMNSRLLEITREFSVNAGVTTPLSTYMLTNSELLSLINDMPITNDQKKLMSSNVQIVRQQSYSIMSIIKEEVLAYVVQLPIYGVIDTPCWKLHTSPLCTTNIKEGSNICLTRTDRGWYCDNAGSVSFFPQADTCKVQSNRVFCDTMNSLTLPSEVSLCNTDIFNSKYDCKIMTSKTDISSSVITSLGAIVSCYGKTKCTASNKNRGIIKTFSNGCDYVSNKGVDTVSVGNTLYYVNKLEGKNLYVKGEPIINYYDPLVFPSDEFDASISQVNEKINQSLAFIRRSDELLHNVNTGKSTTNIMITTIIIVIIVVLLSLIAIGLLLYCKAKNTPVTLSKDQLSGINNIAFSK
Assay [3] concerns the target F protein of RSV reference strain RSV-A Long (ATCC VR-26) (RSV-A Long (ATCC VR-26)) (UniProt P12568). Kind of assay: cell-based or functional assay.
Assay [4] addresses F protein on intact RSV particles (Example 10, strain or isolate not stated) (RSV, strain not stated). Kind of assay: competition ELISA; RSV particles pre-incubated with control mAb at 20 µg/mL (the reference); competitor (coating mAb): palivizumab.

The source of these data is US20160122418A1.

Chain of F protein of RSV reference strain RSV-A Long (ATCC VR-26) (RSV-A Long (ATCC VR-26)) (P12568 26-574): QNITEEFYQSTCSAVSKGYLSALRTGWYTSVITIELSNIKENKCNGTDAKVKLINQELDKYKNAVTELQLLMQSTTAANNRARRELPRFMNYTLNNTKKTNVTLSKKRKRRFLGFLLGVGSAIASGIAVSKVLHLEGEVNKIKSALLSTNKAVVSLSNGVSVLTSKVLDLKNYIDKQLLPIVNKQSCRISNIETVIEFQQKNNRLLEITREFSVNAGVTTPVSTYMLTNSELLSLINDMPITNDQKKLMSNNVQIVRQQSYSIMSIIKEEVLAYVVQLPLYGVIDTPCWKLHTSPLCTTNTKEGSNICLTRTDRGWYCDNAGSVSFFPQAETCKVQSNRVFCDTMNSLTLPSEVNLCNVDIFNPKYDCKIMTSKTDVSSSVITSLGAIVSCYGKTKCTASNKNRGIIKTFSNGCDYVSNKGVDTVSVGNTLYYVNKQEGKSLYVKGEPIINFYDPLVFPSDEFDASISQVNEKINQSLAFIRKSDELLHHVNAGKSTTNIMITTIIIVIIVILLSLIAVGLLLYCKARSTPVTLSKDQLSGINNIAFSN

With “unrelated fully human monoclonal IgG1 antibody (control)”, the % binding of RSV to the coating mAb relative to control IgG in assay [1] and in assay [4] was 100% throughout. In addition, the Estimated half-maximal effective antibody concentration (ng/mL), plaque neutralization on Vero cells in assay [2] and in assay [3] was > 1000 ng/mL each time.
In the case of palivizumab (antibody), the Estimated half-maximal effective antibody concentration (ng/mL), plaque neutralization on Vero cells in assay [2] was 200 ng/mL; in assay [3], 100 ng/mL.
